Test results taken from US20250101135A1 (Hoffmann-La Roche, published 2025).

T1: human CD19 on B cell lymphoma and leukemia cell lines (human, UniProt P15391 20-556)
T1 construct: also called SU-DHL-8; Nalm6
T1 sequence: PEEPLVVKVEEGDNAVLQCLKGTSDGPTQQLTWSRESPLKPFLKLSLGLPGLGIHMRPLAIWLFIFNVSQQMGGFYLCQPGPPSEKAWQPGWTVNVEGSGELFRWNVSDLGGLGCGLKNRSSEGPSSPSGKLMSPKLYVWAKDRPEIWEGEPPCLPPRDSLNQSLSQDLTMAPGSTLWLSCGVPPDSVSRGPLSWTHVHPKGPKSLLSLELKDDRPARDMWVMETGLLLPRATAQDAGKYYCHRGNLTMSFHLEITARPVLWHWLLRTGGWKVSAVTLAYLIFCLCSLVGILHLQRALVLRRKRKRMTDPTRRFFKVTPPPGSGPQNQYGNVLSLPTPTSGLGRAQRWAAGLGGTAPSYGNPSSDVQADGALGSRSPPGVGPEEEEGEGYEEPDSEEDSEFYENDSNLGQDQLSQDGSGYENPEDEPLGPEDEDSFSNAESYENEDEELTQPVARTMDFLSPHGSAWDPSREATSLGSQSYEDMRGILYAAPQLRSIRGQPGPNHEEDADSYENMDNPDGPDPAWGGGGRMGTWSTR

T2: human CEA (CEACAM5) on tumor cells (human, UniProt P06731 35-685)
T2 construct: also called MKN45; MKN-45
T2 sequence: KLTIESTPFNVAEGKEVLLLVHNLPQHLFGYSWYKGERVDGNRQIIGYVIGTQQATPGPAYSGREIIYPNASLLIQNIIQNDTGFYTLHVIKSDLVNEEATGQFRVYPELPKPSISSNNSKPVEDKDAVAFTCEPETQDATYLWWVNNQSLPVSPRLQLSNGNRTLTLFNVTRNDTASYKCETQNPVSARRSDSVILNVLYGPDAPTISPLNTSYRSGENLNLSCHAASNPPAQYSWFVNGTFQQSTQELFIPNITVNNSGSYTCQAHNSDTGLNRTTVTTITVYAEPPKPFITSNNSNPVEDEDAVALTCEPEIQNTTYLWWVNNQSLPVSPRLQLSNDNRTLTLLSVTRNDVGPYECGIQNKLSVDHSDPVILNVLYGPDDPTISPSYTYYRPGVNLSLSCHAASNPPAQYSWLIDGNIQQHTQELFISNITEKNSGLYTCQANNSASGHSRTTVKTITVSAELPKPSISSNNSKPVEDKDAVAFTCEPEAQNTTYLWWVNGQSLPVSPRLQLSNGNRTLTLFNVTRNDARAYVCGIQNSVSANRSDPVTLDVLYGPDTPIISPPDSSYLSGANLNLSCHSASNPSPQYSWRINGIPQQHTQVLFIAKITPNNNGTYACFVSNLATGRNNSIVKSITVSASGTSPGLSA

B1: anti-CD19(8B8-018) huIgG1 PGLALA (control G) (antibody, V domains shown)
VH: QVQLVQSGAEVKKPGASVKVSCKASGYTFTDYIMHWVRQAPGQGLEWMGYINPYNDGSKYTEKFQGRVTMTSDTSISTAYMELSRLRSDDTAVYYCARGTYYYGSALFDYWGQGTTVTVSS
VL: DIVMTQTPLSLSVTPGQPASISCKSSQSLENPNGNTYLNWYLQKPGQSPQLLIYRVSKRFSGVPDRFSGSGSGTDFTLKISRVEAEDVGVYYCLQLTHVPYTFGQGTKLEIKR
B2: Humanized variant 1 of T84.66 IgG (T84.66-LCHA) (antibody, V domains shown)
VH: QVQLVQSGAEVKKPGSSVKVSCKASGFNIKDTYMHWVRQAPGQGLEWMGRIDPANGNSKYVPKFQGRVTITADTSTSTAYMELSSLRSEDTAVYYCAPFGYYVSDYAMAYWGQGTLVTVSS
VL: EIVLTQSPATLSLSPGERATLSCRAGESVDIFGVGFLHWYQQKPGQAPRLLIYRASNRATGIPARFSGSGSGTDFTLTISSLEPEDFAVYYCQQTNEDPYTFGQGTKLEIK
notes: IgG

Key:
[1] = molecular target: T1, human CD19 on B cell lymphoma and …; experiment: flow cytometry on SU-DHL-8 cells
Procedure: (§1) Cells were washed once with 200 μL DPBS and pellets were resuspended. […] Cells were washed twice with 200 μL 4° C. FACS buffer and then resuspended in 50 μL/well DPBS containing 1% formaldehyde. The same or the next day cells were resuspended in 100 μL FACS-buffer and acquired using 5-laser LSR-FORTESSA® (BD Bioscience with DIVA software) or 3-laser Miltenyi Quant Analyzer 10 (Mitenyi Biotec) and Flow Jo (FlowJo X 10.0.7).

[2] = molecular target: T3, monomeric human CD19 antigen Fc(kih) fusion molecule (human, UniProt P0DOX5 223-449 = IgG part); experiment: SPR Biacore T200, captured via anti-human Fab, human CD19-Fc(kih) analyte
T3 construct: also called monomeric CD19-Fc; human CD19-Fc(kih)
Procedure: Anti-human Fab antibody (Biacore, Freiburg/Germany) was directly coupled on a CM5 chip at pH 5.0 using the standard amine coupling kit (Biacore, Freiburg/Germany). The immobilization level was approximately 8000 RU. […] Recombinant human CD19-Fc(kih) was passed at a concentration range from 7.8 to 500 nM (2-fold dilution) with a flow of 30 μL/minutes through the flow cells over 120 seconds. The dissociation was monitored for 120/1800 seconds. Bulk refractive index differences were corrected for by subtracting the response obtained on reference flow cell.
Affinity constants for the interaction were determined by fitting to a 1:1 Langmuir binding.

[3] = molecular target: T4, human 4-1BB (CD137) on cells (human, UniProt Q07011 24-255); experiment: flow cytometry, activated human PBMC, CD4+ T cells (panel title MFI CD4), PE anti-human IgG Fc secondary
T4 construct: whole, on cells; also called 4-1BB+CD8+; 4-1BB+CD4+
T4 sequence (Q07011 24-255): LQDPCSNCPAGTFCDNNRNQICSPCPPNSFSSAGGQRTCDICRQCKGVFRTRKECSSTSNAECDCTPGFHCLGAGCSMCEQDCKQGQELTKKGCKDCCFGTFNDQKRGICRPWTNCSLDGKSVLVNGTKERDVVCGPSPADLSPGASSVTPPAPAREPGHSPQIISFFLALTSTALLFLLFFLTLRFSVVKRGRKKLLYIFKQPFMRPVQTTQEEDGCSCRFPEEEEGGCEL
Source text: Gates were set on living CD45+CD3+CD4+ or CD45+CD3+CD8+ T cells and MFI of PE-conjugated AffiniPure anti-human IgG IgG Fcγ-fragment-specific goat F(ab′)2 fragment were blotted against the titrated concentration of targeted split trimeric 4-1BB ligand Fc fusion variants.

[4] = molecular target: T1, human CD19 on B cell lymphoma and …; experiment: flow cytometry on Nalm6 cells
Procedure: as §1

[5] = molecular target: T1, human CD19 on B cell lymphoma and …; experiment: flow cytometry on Toledo cells
Procedure: as §1

[6] = molecular target: T1, human CD19 on B cell lymphoma and …; experiment: flow cytometry on OCI-Ly18 cells
Procedure: as §1

[7] = molecular target: T2, human CEA (CEACAM5) on tumor cells; experiment: flow cytometry on CEA-expressing MKN45 cells
Procedure: Cells were harvested, counted, checked for viability and re-suspended at 2×10⁶ cells/ml in FACS buffer (100 μl PBS 0.1% BSA). […] Binding curves and EC50 values were obtained and calculated using GraphPadPrism5.

Binder | EC50 [1] [pM] | Kd [2] [pM] | koff [2] [s⁻¹] | kon [2] [M⁻¹ s⁻¹] | binding result [3] | EC50 [4] [pM] | EC50 [5] [pM] | EC50 [6] [pM] | EC50 [7] [µg/mL]
B1 | 90 | 12300 | 0.000261 | 21200 | no binding (tested: about 300 nM) | 100 | 60 | 70 | –
B2 | – | – | – | – | – | – | – | – | 1.5
